In article PMC4475061:
One block for each substance: values may come before it.

Assays:
[1] = molecular target: CHMP1A (positive-control partner of the Gal4-CHMP1B constructs in the two-hybrid assay); experiment: yeast two-hybrid (β-galactosidase activity); details: parent: est. 0.71; read off a plot
[2] = molecular target: IST1 MIM1 peptide (residues 344–366), fluorescently labeled (human); experiment: fluorescence polarisation; 250 pM Oregon Green 488-labeled IST1 peptides, twofold dilutions of ULK3 proteins; 25 mM Tris pH 7.2, 150 mM NaCl, 0.1 mg/mL BSA, 0.01% Tween-20, 1 mM DTT; 1:1 fit
[3] = molecular target: IST1 MIMs peptide (residues 316–366), fluorescently labeled (human); experiment: as above

Substance: ULK3(MIT)2 M434D (from UniProt Q6PHR2 277-449) (domain or fragment)
- fold reduction of binding against wild-type ULK3(MIT)2 [3]: > 100 fold

Substance: ULK3(MIT)2 (residues 277–449) (from UniProt Q6PHR2 277-449) (domain or fragment)
- Kd [3]: 200 nM

Second part, the substance after the results:

- response [1]: 0.89
Substance: CHMP1B WT fused to the Gal4 DNA-binding domain (from UniProt Q7LBR1) T178R; A181R; E184R

- Kd [2]: 770 nM
Substance: ULK3 MIT2 (residues 359–449) (from UniProt Q6PHR2 359-449) (domain or fragment)

- fold reduction of binding against wild-type ULK3(MIT)2 [3]: < 2 fold
Substance: ULK3(MIT)2 V338D (from UniProt Q6PHR2 277-449) (domain or fragment)
